Experimental data: patent US20180333469
Entries after “also recorded” stand apart in the source; their conditions may differ.

B1: fVIIa/TF enzyme complex (protein)
chain 1: ANAFLEELRPGSLERECKEEQCSFEEAREIFKDAERTKLFWISYSDGDQCASSPCQNGGSCKDQLQSYICFCLPAFEGRNCETHKDDQLICVNENGGCEQYCSDHTGTKRSCRCHEGYSLLADGVSCTPTVEYPCGKIPILEKRNASKPQGRIVGGKVCPKGECPWQVLLLVNGAQLCGGTLINTIWVVSAAHCFDKIKNWRNLIAVLGEHDLSEHDGDEQSRRVAQVIIPSTYVPGTTNHDIALLRLHQPVVLTDHVVPLCLPERTFSERTLAFVRFSLVSGWGQLLDRGATALELMVLNVPRLMTQDCLQQSRKVGDSPNITEYMFCAGYSDGSKDSCKGDSGGPHATHYRGTWYLTGIVSWGQGCATVGHFGVYTRVSQYIEWLQKLMRSEPRPGVLLRAPFP
chain 2: SGTTNTVAAYNLTWKSTNFKTILEWEPKPVNQVYTVQISTKSGDWKSKCFYTTDTECDLTDEIVKDVKQTYLARVFSYPAGNVESTGSAGEPLYENSPEFTPYLETNLGQPTIQSFEQVGTKVNVTVEDERTLVRRNNTFLSLRDVFGKDLIYTLYYWKSSSSGKKTAKTNTNEFLIDVDKGENYCFSVQAVIPSRTVNRKSTDSPVECMGQEKGEFREIFYIIGAVVFVVIILVIILAISLHKCRKAGVGQSWKENSPLNVS
B2: wild-type factor Xa (fXa) (protein)
chain 1: ANSFLEEMKKGHLERECMEETCSYEEAREVFEDSDKTNEFWNKYKDGDQCETSPCQNQGKCKDGLGEYTCTCLEGFEGKNCELFTRKLCSLDNGDCDQFCHEEQNSVVCSCARGYTLADNGKACIPTGPYPCGKQTLER
chain 2: IVGGQECKDGECPWQALLINEENEGFCGGTILSEFYILTAAHCLYQAKRFKVRVGDRNTEQEEGGEAVHEVEVVIKHNRFTKETYDFDIAVLRLKTPITFRMNVAPACLPERDWAESTLMTQKTGIVSGFGRTHEKGRQSTRLKMLEVPYVDRNSCKLSSSFIITQNMFCAGYDTKQEDACQGDSGGPHVTRFKDTYFVTGIVSWGEGCARKGKYGIYTKVTAFLKWIDRSMKTRGLPKAKSHAPEVITSSPLK

Target: tissue factor pathway inhibitor (TFPI), P10646
Sequence (P10646 whole entry, looked up): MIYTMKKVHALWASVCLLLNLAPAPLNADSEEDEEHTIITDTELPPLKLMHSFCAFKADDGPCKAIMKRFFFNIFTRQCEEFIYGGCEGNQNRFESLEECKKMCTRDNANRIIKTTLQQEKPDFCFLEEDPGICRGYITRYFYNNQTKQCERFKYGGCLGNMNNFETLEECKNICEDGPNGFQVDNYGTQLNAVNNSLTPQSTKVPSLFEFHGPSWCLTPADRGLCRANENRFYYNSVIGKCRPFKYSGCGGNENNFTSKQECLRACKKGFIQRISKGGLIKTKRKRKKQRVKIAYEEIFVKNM

Protein | fXa formation from fX (170 nM) by fVIIa/TF, measured by Spectrozyme-Xa cleavage | fXa chromogenic activity (cleavage of Spectrozyme-fXa, 100 µM) after 2 hour incubation
B1 | fXa combined with TFPI (included at the physiological concentration of 2.4 nM) and rapidly inhibited fVIIa/TF activity | 
B2 |  | For fXa at both 0.5 nM and 1 nM, a 2 nM concentration of TFPI was enough to almost completely inhibit the activity of fXa; also recorded: Such inhibition was also significant when TFPI's concentration was at 1 nM
